# Test results reported in patent publication US20130035249A1.
# Experiments:
# [1] = target: full-length human CEA (human) (UniProt P06731); assay: binding to CHO cells co-expressing full-length CEA and the CEA splice variant (method of the KD not described)
# [2] = target: full-length human CEA (human) (UniProt P06731); assay: binding to CHO cells expressing full-length CEA (method of the KD not described)
substance,measurement,setting,value
MEDI-565 (bispecific antibody),Kd,[1],5.6 nM
same,Kd,[2],5 nM
